System: MS2 coat protein
Experiment: apparent KD of MS2 coat protein; higher = weaker reporter binding
Details: Eterna round: R107
How it was run: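 Titrations with SNAP-549-labelled MS2 coat protein ran in twofold steps from 0.7 or 1.5 nM to 3 µM, each step taking 0.8–1.5 h at the start and 10–20 min toward the end. The targets were designed RNA switches transcribed on-chip from Illumina sequencing clusters, held in 100 mM Tris-HCl pH 7.5, 80 mM KCl, 4 mM MgCl2, without or with constant ligand. Apparent KD was taken per design as the median of normalised cluster binding-curve fits.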

[1] = input ligand: theophylline 20 uM
[2] = input ligand: theophylline 2 mM
[3] = input ligand: tryptophan 2.4 mM

Sequence	apparent KD of MS2 coat protein (input ligand: arginine 13.2 mM)	apparent KD of MS2 coat protein [1]	apparent KD of MS2 coat protein [2]	apparent KD of MS2 coat protein (input ligand: none)	apparent KD of MS2 coat protein [3]
AGCAACUAGUCGGCCGCCACUCAUAUUACAUGAGGAUCACCCAUGUAUACAUGGUUGUUAUAUUUGAGGACCGGGACAGUUGCAU [JR_SSTryptoB_Sub018]	0.059 µM	0.0699 µM	0.0757 µM		
GAGCUGAUGUAGGCCGGAUAUCCGGGAGAUACCAGUACAGAAAUGUACCCUUGGCAGCUCUUUCUUACAUGAGGAUCACCCAUGU [Ex Theophylline A 27]	0.0115 µM	0.0154 µM	0.0191 µM	0.0131 µM	0.0134 µM
ACUAGCGCACAUGAUACCAGCGACAUGAGGAUCACCCAUGUACGGCGUGUAUCGAAAGGUUGCCCUUGGCAGCAUGAUAGCGCUG [Cebiri]	0.0126 µM	0.0261 µM			0.0145 µM
GUAAUUUAUUGAAGGAGCGUCGAAAAUGGGUAAACAUGAGGAUCACCCAUGUAAAGGGAACGACAGGUAGGUCGCAAUAGGUUAC [AstromonsSSArgB#29]	0.103 µM	0.252 µM	0.285 µM	0.192 µM	0.197 µM
AUACAUGAGGAUCACCCAUGUAUAGUUGAAGGAGCGACCAGAGGGUCAGGUAGGUCGCAGCACAUGAGGAUCACCCAUGUAUUUU [#1 Exclusion - Arginine A Attempt #14 (Inspired by Pi)]	0.0326 µM	0.0403 µM	0.0351 µM	0.038 µM	0.0273 µM
CAUGGGCUAAGACAUUAUUCGUAUUUUGAUACCAGAAAAUUGGCGUUCCCUUGGCAGCAAUAUACAUGAGGAUCACCCAUGUCCC [theeternabot_exclusion_MS2_Theo_A_23]	0.0388 µM	0.0709 µM			0.0583 µM
CGGUCGGUCGGCCGGUGAUUAUGGGAUGAAGGAGCGUGGGAAGCUACAGGUAGGUCGCAUCCGAAAGAUGAGGAUCACCCAUCUU [SSArg A #24Alt-Ms2 Mod]	0.0244 µM	0.0344 µM	0.0464 µM	0.0303 µM	0.0215 µM
GCUUGGGUGGCACGGCCCUGGCGGUGCGAUACCAGCACGGUAACGUGCCCUUGGCAGCGCACAUGAGGAUCACCCAUGUGGUGCG [#1 Exclusion - Theophylline A Attempt #24 (HarryS)]	0.0131 µM	0.0219 µM	0.185 µM	0.0156 µM	0.0137 µM
AUACAUGAGGCGGCCGCCACUUUACAUGAGGAUCAACAUGAGGAUCACCCAUGUUACAUGUGGAUAAGGACCGGGCCUCAUGUAU [Same State Tryptophan B 2]	0.0519 µM	0.178 µM	0.313 µM	0.18 µM	0.0912 µM
CUAUAAGUACCGGUCCUCAGAUCCUCAUGACGAGGACCGGUACGGCCGCCACUCGAAACAUGAGGAUCACCCAUGUAAUAAUACC [Brourdmod16]	0.0175 µM	0.0475 µM	0.0626 µM		
UACAUGAGGAUCACCCAUGUAUGAAUAGAUACCAGCGAAAAUAAGCGCCCUUGGCAGCUAGUGAAUAAAGGGUGGGUAAAAUAAU [Exclusion Theophyline A GF 2]	0.0083 µM	0.0136 µM			0.00941 µM
AAACGUUGCUCAGAUACCAGACAUGAGGAUCACCCAUGUACCGAGGUACCCGAAAGGAAUGUCCCUUGGCAGCUGAGCAACGAAA [MAT - Exclusion Theophlline B - Mod of Eli - D23]	0.0146 µM	0.019 µM			0.0102 µM
UAUCGUCAGACGGCCGCCACUAGAACAUGAGGAUCACCCAUGUACGGCCGCUCGGUCCUCAUGACUAGGACCGGGUCUGACGAAU [(Trp1)-(Ms2)-(T)'-(M)'-(Trp2)_Design22]	0.0108 µM	0.0169 µM	0.012 µM	0.00731 µM	0.00996 µM
GAAUUAUGACGUGAUACCAGUGGUCAAUACUGGGAACUUAACAUGAGGAUCACCCAUGUCCACCCUUGGCAGCACGCUGACAAUC [theeternabot_exclusion_MS2_Theo_B_14]	0.0435 µM	0.133 µM			0.0796 µM
UCUAACAUGAGGAUCACCCAUGUACCGUCCCGAGGACCGGUACGGCCGCCACUCGUCUUGCUAAAACUGAAGUGAUCACAAGCCU [theeternabot_sameState_MS2_Trp_A_2]	0.0252 µM	0.0309 µM	0.0246 µM		
GCUACAUGAGGAUCACCCAUGUAUGCGAGCCGAGGACCGGUACGGCCGCCACUCGCUUAACAUGAGGAUCACCCAUGUUGCUCGC [SSTA DOUBLE!!! :-D #18]	0.0197 µM	0.0362 µM	0.0281 µM		
GGUGGCUGGAUCGAUACCAGCCACCACCGAUAGACCACAUGAGGAUCACCCAUGUUGGGUGGCCCUUGGCAGCGGUCCAGCUGCC [#1 Same State - Theophylline B Attempt #5 (HarryS)]	0.0788 µM	1.01 µM	1.24 µM	0.587 µM	0.851 µM
CGAGUGCUGUCGGCCGCCACUGCACAUGAGGAUCACCCAUGUAAAAGCUGGCUGUGACUGGUGUUCAGGACCGGGACAGGGUCUU [Inriedzaan]	0.0109 µM	0.0138 µM	0.0117 µM		
AGAAUAUAGUCGGCCGCCACUCUACAUACAUGAGGAUCACCCAUGUUUACAUAGUGGAAACACAUGAGGACCGGGACAUAGGCAU [#16 Same State - Tryptophan B]	0.00817 µM	0.0132 µM	0.011 µM	0.0122 µM	0.00998 µM

Sequence	apparent KD of MS2 coat protein (input ligand: arginine 13.2 mM)	apparent KD of MS2 coat protein [1]	apparent KD of MS2 coat protein [2]	apparent KD of MS2 coat protein (input ligand: none)	apparent KD of MS2 coat protein [3]
UGGGUUGGACCAGGAAAUGGUCUGACGCACCGAGGACCGGUACGGCCGCCACUCGGCCGUACAUGAGGAUCACCCAUGUCGGUGU [#1 Same State - Tryptophan A Attempt #13 (HarryS)]	0.107 µM	0.486 µM	1.17 µM	0.377 µM	0.74 µM
ACACAAUACAUGAGGAUCACCCAUGUAUAACGAGGACCGGUACGGCCGCCACUCGAAUACUGUAAUCCUCGGAAUAUUAUGUGAA [JR_ExcTryptA_Sub003]	0.0329 µM	0.0567 µM	0.0605 µM		
ACCUGUACGAAAAGUGCAGGACAUGGAAAUCGAGGACCGGUACGGCCGCCACUCGUAUAAAACAAGUGGAUCACCCUUGUCCAUG [TrypAS 2 #AlternativeMS2 #Zipper #StaticStem]	0.32 µM	0.96 µM	1.5 µM	0.773 µM	1.36 µM
GCUAGGUCAUCGGCCGCCACUAACGAUGGCUCCGACAUGAGGAUCACCCAUGUGCCACUUGCGCAUAGGACCGGGAUGACCUAGC [SSTB NP+V+V2 #1]	0.0177 µM	0.0243 µM	0.0172 µM	0.015 µM	0.0115 µM
AUAACGAGUGGUGGAUAAUCCUCAUGUAAACGAGGACCGGUACGGCCGCCACUCGAUAACAUGAGGAUCACCCAUGUAAUAAUAA [|T'-M'-Trp-Ms2|_Design17]	0.0259 µM	0.0208 µM	0.0213 µM		
GCUGUAAGUGCAGAUACCAGCAUGUUAUAUUUCUAAUGACAUGAGGAUCACCCAUGUAAAUGCCCUUGGCAGCUGCACUUACAGC [SSTHB #6]	0.0156 µM	0.0214 µM			0.0187 µM
AUUUAUGGUCGUGAUACCAGACAUACAUGAGGAUCACCCAUGUGAAAUAACAUAAUUUAGGUCCCUUGGCAGCACUUUUUAAUUA [JR_Nu_SSTheophyB_Sub020]	0.0439 µM	0.0636 µM			0.0524 µM
CGAGCUGACGGAAGGAGCGAAGCCUACUCGGUGUUCCCACAUGAGGAUCACCCAUGUGGGCUUCAGGUAGGUCGCCGAACAGUCG [Vecequlala]	0.0261 µM	0.061 µM	0.0869 µM	0.0407 µM	0.0324 µM
UAUCCACAUGAGGAUCACCCAUGUUAGGAAGGAGCGGUGAAUGAACCAGGUAGGUCGCCUAGGUGAGGAUCAUCUAUGGAUUCGU [Exclusion - Arginine A (Freestyle 11)]	0.03 µM	0.0373 µM	0.0383 µM	0.0302 µM	0.0317 µM
AACUGGGUUCGUGAUACCAGCUCACACAUGAGGAUCACCCAUGUAGUGGGUAAAAUGUGGAGCCCUUGGCAGCACUGUGACCACG [Esria]	0.0146 µM	0.0254 µM			0.0144 µM
UUGUGGCGCUCGGCCGCCACUCCGACAUGAGGAUCACCCAUGUUCUACAUGAGGAUCACCCAUGUGAGGACCGGGAGACACUUCC [Exclusion Tryptophan B GF13]	0.053 µM	0.109 µM	0.116 µM		
UCACAUGAGGAUCACCCAUGUCAUGUUGAAGGAGCGACCAGGAGGUCAGGUAGGUCGCAACACAUGAGGAUCACCCAUGUGGCCC [Qetesh]	0.0875 µM	0.119 µM	0.159 µM	0.172 µM	0.149 µM
AUAUUAAUCGGAAGGAGCGGUACAUGAGGAUCACCCAUGUGCUAAGCUAGCAGAUCCCGUUACCAGGUAGGUCGCCGAGUUAUGA [Titeonra]	0.0356 µM	0.0309 µM	0.0295 µM	0.024 µM	0.0234 µM
UGGUAUGUAGGAAGGAGCGCAUACUUCACAUGAGGAUCACCCAUGUCGAGACGUGAGUCAGUGCAGGUAGGUCGCCUAGUUAUGA [Same State - Arginine B (Freestyle 22)]	0.0358 µM	0.0334 µM	0.0281 µM	0.043 µM	0.029 µM
ACCUGUACGAAAAGUGCAGGACAUGGUAAACGAGGACCGGUACGGCCGCCACUCGAAUAACAAGUGGAUCACCCUUGUAACCAUG [TrypAS 5 #AlternativeMS2 #Zipper #StaticStem]	0.0396 µM	0.573 µM	3.02 µM	0.223 µM	1.09 µM
CGUAUGUAGACGGCCGCCACUGGAACAAGAGGAUCACCCUUGUACAGGGUGGGACUAUCGAGAGUCAGGACCGGGUCUACAUACA [Tryp B Ex t2]	0.112 µM	0.19 µM	0.14 µM	0.15 µM	0.0197 µM
ACAUGAGGAUCACCCAUGUUCCUCGCCGAUACCAGUGAAGAAUUACGCCCUUGGCAGCGGAAUGAGUGUUUUGGAGAUGAGGUAC [6.aB]	0.0844 µM	0.112 µM			0.081 µM
GGAUGCGGCACGGCCGCCACUGCGGUGGUGUGACAUGAGGAUCACCCAUGUUGUCAUGCGGCCCUUAGGACCGGGUGGCGUGUCC [#1 Exclusion - Tryptophan B Attempt #19 (HarryS)]	0.0372 µM	0.0574 µM	0.0563 µM		

— the supplement of paper PMC9170038
